Substrate in series [1]: Nc1ncnc2c1ncn2[C@@H]1O[C@H](COP(=O)(O)OP(=O)(O)O[C@H]2O[C@H](CO)[C@@H](O)[C@H](O)[C@H]2O)[C@@H](O)[C@H]1O
Kind of series: purified protein. The format is biochemical, Escherichia coli. To be noted: 1 nM enzyme, 1 mg/mL bovine glycogen primer, 12 mM MgCl2, 50 mM HEPES-NaOH pH 8.0, 30 °C, no GlgB.

Substrate in series [2]: Nc1ncnc2c1ncn2[C@@H]1O[C@H](COP(=O)(O)OP(=O)(O)O[C@H]2O[C@H](CO)[C@@H](O)[C@H](O)[C@H]2O)[C@@H](O)[C@H]1O
In words: purified protein. To be noted: 1 mg/mL bovine glycogen primer, 12 mM MgCl2, 50 mM HEPES-NaOH pH 8.0, 30 °C, no GlgB. It counts as biochemical, Synechocystis sp. PCC 6803.

The record followed here is PMC13456619, “The (Glg)ABCs of cyanobacteria: modelling of glycogen synthesis and functional divergence of glycogen synthases in Synechocystis sp. PCC 6803” (Febs Letters, 2026).

B1: GlgA^ E.coli (Escherichia coli K-12) (protein)
chain: MQVLHVCSEMFPLLKTGGLADVIGALPAAQIADGVDARVLLPAFPDIRRGVTDAQVVSRRDTFAGHITLLFGHYNGVGIYLIDAPHLYDRPGSPYHDTNLFAYTDNVLRFALLGWVGAEMASGLDPFWRPDVVHAHDWHAGLAPAYLAARGRPAKSVFTVHNLAYQGMFYAHHMNDIQLPWSFFNIHGLEFNGQISFLKAGLYYADHITAVSPTYAREITEPQFAYGMEGLLQQRHREGRLSGVLNGVDEKIWSPETDLLLASRYTRDTLEDKAENKRQLQIAMGLKVDDKVPLFAVVSRLTSQKGLDLVLEALPGLLEQGGQLALLGAGDPVLQEGFLAAAAEYPGQVGVQIGYHEAFSHRIMGGADVILVPSRFEPCGLTQLYGLKYGTLPLVRRTGGLADTVSDCSLENLADGVASGFVFEDSNAWSLLRAIRRAFVLWSRPSLWRFVQRQAMAMDFSWQVAAKSYRELYYRLK
notes: full-length in pET28a, N-terminal His tag, expressed in E. coli, IMAC and anion exchange
The Km is the substrate concentration at which the rate is half of its maximum. Regarding B1, the Km in series [1] is 275 ± 17 µM.

B2: GlgA1 (Synechocystis sp. PCC 6803 substr. Kazusa) (protein)
chain: MKILFVAAEVSPLAKVGGMGDVVGSLPKVLHQLGHDVRVFMPYYGFIGDKIDVPKEPVWKGEAMFQQFAVYQSYLPDTKIPLYLFGHPAFDSRRIYGGDDEAWRFTFFSNGAAEFAWNHWKPEIIHCHDWHTGMIPVWMHQSPDIATVFTIHNLAYQGPWRGLLETMTWCPWYMQGDNVMAAAIQFANRVTTVSPTYAQQIQTPAYGEKLEGLLSYLSGNLVGILNGIDTEIYNPAEDRFISNVFDADSLDKRVKNKIAIQEETGLEINRNAMVVGIVARLVEQKGIDLVIQILDRFMSYTDSQLIILGTGDRHYETQLWQMASRFPGRMAVQLLHNDALSRRVYAGADVFLMPSRFEPCGLSQLMAMRYGCIPIVRRTGGLVDTVSFYDPINEAGTGYCFDRYEPLDCFTAMVRAWEGFRFKADWQKLQQRAMRADFSWYRSAGEYIKVYKGVVGKPEELSPMEEEKIAELTASYR
notes: full-length, N-terminal His tag, expressed in E. coli, IMAC and anion exchange
Consider B2, for which, in series [2], the Km was determined as 152 ± 3.6 µM.

B3: GlgA2 (Synechocystis sp. PCC 6803 substr. Kazusa) (protein)
chain: MYIVQIASECAPVIKAGGLGDVIYGLSRELELRGHCVELILPMYDCMRYDHIWGLHDAYRNLEVPWYGSSIFCDVFCGWVHGRLCFFIQPKSSDNFFNRGHYYGALDDHMRFAFFSKAAMEFLLRSNKRPDIIHCHDWQTGLVPVLLYEIYRFHGMDHQRVCYTIHNFKHQGIAGANILHATGLNNDSYYFSYDRLQDNFNPNAINFMKGGIVYSNYVNTVSPHHAWEARFSDISCGLGHTLEIHQQKFGGILNGLDYEVWNPEIDPLLASNFSVKTFGDKAKNKQALRERLLLETDDKKPMLCFIGRLDGQKGVHLVHHSIYYALSQGAQFVLLGSATEPNLSKWFWHEKQHLNDNPNVHLELGFDEELAHLIYGAADIIVVPSNYEPCGLTQMIGLRYGAVPVVRGVGGLVNTVFDRDYDQNHPPEKRNGFVFYQPDEYALETALSRAIALYKDDPVAFKTLALQGMAYDYSWNKPGLQYVEAYEYIRA
notes: as for B1
On to B3, for which the Km in series [2] was 219 ± 9.9 µM.
